Experimental data taken from the Human Domainome abundance scans (Beltran et al. 2025).
± gives the uncertainty stated by the source.

B1: POU domain, class 3, transcription factor 2, residues 262 to 338; numbered along this chain, P20265 (parent)
chain: EDTPTSDDLEQFAKQFKQRRIKLGFTQADVGLALGTLYGNVFSQTTICRFEALQLSFKNMCKLKPLLNKWLEEADSS

Variants of: B1
Test: abundance fitness (aPCA) (normalised: wild type 0, dead -1); higher = more abundant; growth selection in yeast, the domain comes from the species named
Details: Homo sapiens

S76E and S76N are within error of each other in abundance fitness: 0.002 ± 0.038 for the first, 0.013 ± 0.05 for the second.

S76C and S43G are within error of each other in abundance fitness: -0.075 ± 0.043 for the first, -0.12 ± 0.028 for the second.

Compared with S43D, T26P is lower in abundance fitness: 0.093 ± 0.048 for the first, -0.553 ± 0.082 for the second.

T26M and T26D are within error of each other in abundance fitness: -0.705 ± 0.1 for the first, -0.601 ± 0.11 for the second.

Going from T26K to T26V, the abundance fitness falls from -0.399 ± 0.063 to -0.797 ± 0.065.

Compared with L63H, L63M is higher in abundance fitness: -0.451 ± 0.11 for the first, 0.004 ± 0.045 for the second.

Going from L63I to L63W, the abundance fitness falls from -0.148 ± 0.073 to -0.489 ± 0.037.

Compared with L66N, L66K is higher in abundance fitness: -0.504 ± 0.1 for the first, -0.096 ± 0.043 for the second.

L66Y and L66W are within error of each other in abundance fitness: -0.22 ± 0.081 for the first, -0.148 ± 0.034 for the second.

Compared with T46D, T46K is lower in abundance fitness: 0.064 ± 0.046 for the first, -0.416 ± 0.059 for the second.

Compared with T46A, T46Q is higher in abundance fitness: -0.186 ± 0.03 for the first, -0.058 ± 0.045 for the second.

Going from T46N to T46I, the abundance fitness rises from -0.393 ± 0.1 to -0.1 ± 0.053.

Going from G39K to G39S, the abundance fitness falls from -0.219 ± 0.054 to -0.321 ± 0.04.

First: G39M
Second: G39V
The abundance fitness of the first is higher: -0.624 ± 0.074 for the first, -0.897 ± 0.069 for the second.

First: M60E
Second: M60V
The abundance fitness of the first is lower: -0.848 ± 0.079 for the first, -0.553 ± 0.043 for the second.

Going from M60I to M60G, the abundance fitness rises from -0.907 ± 0.29 to -0.543 ± 0.035.

M60H and D8W are within error of each other in abundance fitness: -0.367 ± 0.17 for the first, -0.418 ± 0.042 for the second.

First: D8S
Second: D8L
The abundance fitness of the first is higher: 0.034 ± 0.037 for the first, -0.172 ± 0.04 for the second.

D8H and D8V are within error of each other in abundance fitness: -0.052 ± 0.097 for the first, -0.153 ± 0.035 for the second.

Compared with D8G, D8R is lower in abundance fitness: -0.043 ± 0.027 for the first, -0.234 ± 0.029 for the second.

Going from D8T to D8I, the abundance fitness falls from -0.093 ± 0.055 to -0.423 ± 0.12.

D8F and T36M are within error of each other in abundance fitness: -0.186 ± 0.087 for the first, -0.11 ± 0.042 for the second.

First: T36A
Second: T36W
The abundance fitness of the first is higher: -0.021 ± 0.033 for the first, -0.33 ± 0.046 for the second.

Compared with T36L, T36H is higher in abundance fitness: -0.194 ± 0.037 for the first, 0.015 ± 0.059 for the second.

T36C and T36P are within error of each other in abundance fitness: -0.156 ± 0.051 for the first, -0.137 ± 0.046 for the second.

First: S77P
Second: S77A
The abundance fitness of the first is lower: 0.003 ± 0.041 for the first, 0.115 ± 0.038 for the second.

Compared with S77L, S77T is higher in abundance fitness: -0.028 ± 0.05 for the first, 0.073 ± 0.049 for the second.

K17E and K17I are within error of each other in abundance fitness: -0.39 ± 0.035 for the first, -0.349 ± 0.072 for the second.

First: K17C
Second: K17T
The abundance fitness of the first is lower: -0.442 ± 0.061 for the first, -0.192 ± 0.036 for the second.

I21A and I21N are within error of each other in abundance fitness: -0.236 ± 0.037 for the first, -0.311 ± 0.075 for the second.

First: I21E
Second: I21K
The abundance fitness of the first is higher: -0.004 ± 0.037 for the first, -0.112 ± 0.058 for the second.

First: I21S
Second: D7R
The abundance fitness of the first is lower: -0.337 ± 0.04 for the first, 0.031 ± 0.22 for the second.

First: D7A
Second: D2T
The abundance fitness of the first is lower: -0.154 ± 0.1 for the first, 0.039 ± 0.046 for the second.

D2C and D2F are within error of each other in abundance fitness: -0.124 ± 0.049 for the first, -0.133 ± 0.073 for the second.

First: A33C
Second: A33R
The abundance fitness of the first is lower: -0.19 ± 0.051 for the first, -0.102 ± 0.031 for the second.

A33S and A33I are within error of each other in abundance fitness: -0.091 ± 0.039 for the first, -0.138 ± 0.075 for the second.

Compared with A33D, A74L is higher in abundance fitness: -0.284 ± 0.068 for the first, -0.09 ± 0.037 for the second.

A74Y and A74S are within error of each other in abundance fitness: -0.151 ± 0.069 for the first, -0.168 ± 0.039 for the second.

Going from A74H to A74W, the abundance fitness falls from -0.032 ± 0.067 to -0.172 ± 0.036.

L67T and L67F are within error of each other in abundance fitness: -0.407 ± 0.32 for the first, -0.399 ± 0.2 for the second.

First: L67A
Second: Q18P
The abundance fitness of the first is higher: -0.553 ± 0.12 for the first, -1.21 ± 0.36 for the second.

Going from Q18K to Q18M, the abundance fitness falls from 0.024 ± 0.062 to -0.089 ± 0.045.

Q18L and Q18D are within error of each other in abundance fitness: -0.13 ± 0.037 for the first, -0.068 ± 0.061 for the second.

First: Q18R
Second: Q18G
The abundance fitness of the first is higher: -0.077 ± 0.032 for the first, -0.273 ± 0.031 for the second.

Compared with E10L, E10A is lower in abundance fitness: 0.128 ± 0.03 for the first, 0.006 ± 0.033 for the second.

A13M and A13I are within error of each other in abundance fitness: -0.259 ± 0.11 for the first, -0.12 ± 0.061 for the second.

A13H and A13K are within error of each other in abundance fitness: -0.544 ± 0.094 for the first, -0.606 ± 0.11 for the second.

First: A13S
Second: F12V
The abundance fitness of the first is higher: -0.274 ± 0.041 for the first, -0.442 ± 0.12 for the second.

First: F12Y
Second: F12Q
The abundance fitness of the first is higher: -0.023 ± 0.17 for the first, -0.828 ± 0.43 for the second.

E73N and E73H are within error of each other in abundance fitness: -0.192 ± 0.34 for the first, -0.218 ± 0.27 for the second.

E73F and E73D are within error of each other in abundance fitness: -0.057 ± 0.14 for the first, 0.06 ± 0.1 for the second.

E73I and E73G are within error of each other in abundance fitness: -0.009 ± 0.12 for the first, -0.036 ± 0.05 for the second.

F42Q and F42C are within error of each other in abundance fitness: 0.072 ± 0.042 for the first, -0.006 ± 0.049 for the second.

F42H and F42S are within error of each other in abundance fitness: -0.138 ± 0.096 for the first, -0.268 ± 0.045 for the second.

First: F42R
Second: F42G
The abundance fitness of the first is higher: -0.292 ± 0.032 for the first, -0.397 ± 0.033 for the second.

First: Y38R
Second: Y38N
The abundance fitness of the first is lower: -0.27 ± 0.031 for the first, -0.043 ± 0.051 for the second.

Y38I and Y38W are within error of each other in abundance fitness: -0.298 ± 0.07 for the first, -0.341 ± 0.044 for the second.

Y38S and Y38A are within error of each other in abundance fitness: -0.012 ± 0.032 for the first, -0.069 ± 0.04 for the second.

Going from T5Y to T5L, the abundance fitness rises from -0.337 ± 0.089 to -0.041 ± 0.034.

T5D and T5V are within error of each other in abundance fitness: -0.042 ± 0.04 for the first, -0.108 ± 0.031 for the second.

Compared with L23M, L23D is lower in abundance fitness: 0.048 ± 0.04 for the first, -0.733 ± 0.091 for the second.

Going from L23S to N59P, the abundance fitness falls from -0.345 ± 0.04 to -0.559 ± 0.092.

First: N59C
Second: N59D
The abundance fitness of the first is lower: -0.042 ± 0.056 for the first, 0.105 ± 0.06 for the second.

Compared with N59W, N59M is higher in abundance fitness: -0.074 ± 0.04 for the first, 0.049 ± 0.045 for the second.

Compared with R20T, R20E is higher in abundance fitness: -1.13 ± 0.19 for the first, -0.712 ± 0.079 for the second.

R20H and R20N are within error of each other in abundance fitness: -1.02 ± 0.3 for the first, -1.09 ± 0.4 for the second.

First: F25C
Second: F25N
The abundance fitness of the first is higher: -0.192 ± 0.05 for the first, -0.709 ± 0.11 for the second.

Compared with F25I, F25R is lower in abundance fitness: -0.096 ± 0.064 for the first, -0.321 ± 0.03 for the second.

First: F25Q
Second: K64M
The abundance fitness of the first is lower: -0.431 ± 0.049 for the first, -0.06 ± 0.05 for the second.

Compared with K64W, K64Y is higher in abundance fitness: -0.199 ± 0.04 for the first, -0.019 ± 0.068 for the second.

First: K64I
Second: K64P
The abundance fitness of the first is higher: -0.246 ± 0.083 for the first, -0.931 ± 0.19 for the second.

Going from K64V to E51K, the abundance fitness falls from -0.155 ± 0.034 to -0.666 ± 0.096.

Compared with E51A, Q44M is higher in abundance fitness: -0.855 ± 0.072 for the first, -0.145 ± 0.042 for the second.

Compared with Q44D, Q44F is lower in abundance fitness: -0.018 ± 0.042 for the first, -0.373 ± 0.11 for the second.

First: Q44W
Second: Q44T
The abundance fitness of the first is lower: -0.399 ± 0.042 for the first, -0.018 ± 0.039 for the second.

Q44H and A52C are within error of each other in abundance fitness: -0.031 ± 0.069 for the first, -0.137 ± 0.065 for the second.

Compared with A52D, A52M is lower in abundance fitness: 0.003 ± 0.051 for the first, -0.091 ± 0.039 for the second.

Going from A52G to I47A, the abundance fitness falls from -0.078 ± 0.024 to -0.751 ± 0.068.

Going from I47L to I47E, the abundance fitness falls from -0.267 ± 0.039 to -0.772 ± 0.074.

I47R and I47T are within error of each other in abundance fitness: -0.689 ± 0.05 for the first, -0.636 ± 0.083 for the second.

Going from I47G to P4D, the abundance fitness rises from -1 ± 0.06 to 0.029 ± 0.057.

P4Q and P4E are within error of each other in abundance fitness: 0.053 ± 0.052 for the first, 0.002 ± 0.045 for the second.

P4I and P4F are within error of each other in abundance fitness: 0.096 ± 0.08 for the first, 0.149 ± 0.11 for the second.

Work on P4H yielded an abundance fitness of 0.075 ± 0.06.
